Reference: patent publication US20230272099A1 (Chugai, published 2023)

T1: human FcgRIIa type R extracellular domain (human, UniProt P12318 34-217)
T1 construct: extracellular domain; also called hFcgRIIaR
T1 sequence (looked up): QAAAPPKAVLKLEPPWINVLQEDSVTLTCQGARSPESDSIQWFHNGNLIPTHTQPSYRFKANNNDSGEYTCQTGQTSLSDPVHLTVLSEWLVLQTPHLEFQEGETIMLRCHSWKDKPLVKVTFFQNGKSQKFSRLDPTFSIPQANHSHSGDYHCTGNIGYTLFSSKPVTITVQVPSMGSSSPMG

T2: human FcgRIIa type H extracellular domain (human, UniProt P12318 34-217)
T2 construct: extracellular domain; also called hFcgRIIaH
T2 sequence (looked up): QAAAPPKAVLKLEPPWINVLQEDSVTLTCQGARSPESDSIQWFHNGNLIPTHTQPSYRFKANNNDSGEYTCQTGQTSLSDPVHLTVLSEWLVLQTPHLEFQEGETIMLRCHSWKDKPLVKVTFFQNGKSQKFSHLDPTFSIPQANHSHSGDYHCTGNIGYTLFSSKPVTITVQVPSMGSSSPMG

T3: human FcgRIIb extracellular domain (human, UniProt P31994 43-217)
T3 construct: extracellular domain; also called hFcgRIIb
T3 sequence (looked up): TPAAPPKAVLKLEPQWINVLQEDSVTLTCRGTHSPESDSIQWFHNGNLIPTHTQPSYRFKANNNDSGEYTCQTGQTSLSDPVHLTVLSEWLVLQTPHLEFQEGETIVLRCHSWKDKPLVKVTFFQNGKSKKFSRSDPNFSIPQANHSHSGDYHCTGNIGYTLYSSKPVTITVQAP


Tests used:
[1] = target: T4, human FcgRIa extracellular domain (human, UniProt P12314 16-292); test: SPR 25C
T4 construct: extracellular domain; also called hFcgRIa
T4 sequence (P12314 16-292): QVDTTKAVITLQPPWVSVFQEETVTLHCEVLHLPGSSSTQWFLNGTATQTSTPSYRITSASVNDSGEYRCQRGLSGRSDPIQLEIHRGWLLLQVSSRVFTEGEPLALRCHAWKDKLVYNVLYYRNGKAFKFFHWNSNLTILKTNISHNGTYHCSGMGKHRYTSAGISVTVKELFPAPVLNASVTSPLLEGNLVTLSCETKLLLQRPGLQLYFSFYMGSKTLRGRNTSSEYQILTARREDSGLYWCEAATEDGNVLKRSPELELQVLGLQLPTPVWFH
Method: (§1) Biacore T200 (GE Healthcare) was used to evaluate the binding activity to the respective human Fcγ receptor (hereafter referred to as FcγR). Measurement was performed at 25° C. using 50 mM phosphate, 150 mM NaCl, 0.05 w/v %-P20, pH 7.4 as buffer. About 1000 RU of antibody was captured using a sensor chip immobilized with CaptureSelect™ Human Fab-lambda Kinetics Biotin Conjugate (Thermo Fisher Scientific) as a molecule for ligand capturing. Human FcγR was diluted to 8 nM for FcγRIa and 1000 nM for other FcγR in the measurement buffer, and it was interacted to the captured antibody. The binding activity of each antibody to FcγR was assessed by calculating the binding amount of FcγR (RU) per unit amount of antibody using Biacore T200 Evaluation Software 2.0.

[2] = target: T1, human FcgRIIa type R extracellular …; test: SPR 25C
Method: as §1

[3] = target: T2, human FcgRIIa type H extracellular …; test: SPR 25C
Method: as §1

[4] = target: T3, human FcgRIIb extracellular domain; test: SPR 25C
Method: as §1

[5] = target: T5, human FcgRIIIa V158 extracellular domain (human, UniProt P08637 17-208); test: SPR 25C
T5 construct: extracellular domain; also called hFcgRIIIaV
T5 sequence (P08637 17-208 F176V): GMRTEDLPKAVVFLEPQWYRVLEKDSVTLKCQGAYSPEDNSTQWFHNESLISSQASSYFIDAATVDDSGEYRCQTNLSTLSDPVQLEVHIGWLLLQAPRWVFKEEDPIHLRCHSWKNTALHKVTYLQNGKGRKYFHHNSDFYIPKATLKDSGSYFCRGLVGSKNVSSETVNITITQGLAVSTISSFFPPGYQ
Method: as §1

[6] = target: T6, human FcgRIIIa F158 extracellular domain (human, UniProt P08637 17-208); test: SPR 25C
T6 construct: extracellular domain; also called hFcgRIIIaF
T6 sequence (P08637 17-208): as the sequence (P08637 17-208 F176V) above, with V160F counted along it
Method: as §1

human FcRn = human FcRn (human, UniProt P55899 24-290; P61769 21-119); test: SPR 25C pH 6.0, steady state
Method: Biacore T200 (GE Healthcare) was used to assess the binding activity to human FcRn. Measurement was performed at 25° C. using 50 mM phosphate, 150 mM NaCl, 0.05 w/v %-P20, pH 6.0 as buffer. Human FcRn proteins used for this determination were prepared by the procedure described in WO2010107110. About 400 RU of antibody was captured using a sensor chip immobilized with CaptureSelect™ Human Fab-lambda Kinetics Biotin Conjugate (Thermo Fisher Scientific) as a molecule for ligand capturing, followed by the binding of human FcRn diluted in measuring buffer. The activity of the respective antibodies to bind FcRn was assessed by calculating KD(mol/L) by the steady-state model using Biacore T200 Evaluation Software 2.0.

binding per 1RU antibody [1] | relative binding (A375-G1T3/B167-Lamlib=1) [1] | binding per 1RU antibody [2] | relative binding (A375-G1T3/B167-Lamlib=1) [2] | binding per 1RU antibody [3] | relative binding (A375-G1T3/B167-Lamlib=1) [3] | binding per 1RU antibody [4] | relative binding (A375-G1T3/B167-Lamlib=1) [4] | binding per 1RU antibody [5] | relative binding (A375-G1T3/B167-Lamlib=1) [5] | binding per 1RU antibody [6] | relative binding (A375-G1T3/B167-Lamlib=1) [6] | Kd (human FcRn) | Binder
0.0813 RU | 1 | 0.0463 RU | 1 | 0.0567 RU | 1 | 0.011 RU | 1 | 0.07 RU | 1 | 0.0213 RU | 1 | 1270 nM | A375-G1T3/B167-Lamlib (antibody, human IgG1, lambda, copies: 2 + 2) heavy: not shown light: QSALTQPPSASGSPGQTVTISCTGTRYDVGYYEYVSWYQQHPGKAPKLMIYETSKRLSGVPDRFSGSKSGNTASLTVSGLQAEDEADYYCSSYRYEHQVSFGGGTKLTVLGQPKAAPSVTLFPPSSEELQANKATLVCLISDFYPGAVTVAWKADSSPVKAGVETTTPSKQSNNKYAASSYLSLTPEQWKSHRSYSCQVTHEGSTVEKTVAPTECS
0.0396 RU | 0.49 | 0.0338 RU | 0.73 | 0.0534 RU | 0.94 | 0.0401 RU | 3.66 | 0.0024 RU | 0.03 | 0.0007 RU | 0.04 | 1190 nM | A375-MY201a/B167-Lamlib (antibody, human IgG1, lambda, copies: 2 + 2) heavy: EVQLVESGGGLVKPGGSLRLSCAASGFTFSTFTMNWVRQAPGKGLEWVSSISSKSTYIEYADSFKVRFTISRDNAKNSLYLQMNSLRAEDTAVYYCARYGAKNFLNWVFDYWGQGTLVTVSSASTKGPSVFPLAPSSKSTSGGTAALGCLVKDYFPEPVTVSWNSGALTSGVHTFPAVLQSSGLYSLSSVVTVPSSSLGTQTYICNVNHKPSNTKVDKRVEPKSCDKTHTCPPCPAPELLNGPSVFLFPPKPKDTLMISRTPEVTCVVVDVSDEDPEVKFNWYVDGVEVHNAKTKPREEQYNSTYRVVSVLTVLHQDWLNGKEYKCKVSNKALPKPIEKTISKAKGQPREPQVYTLPPSREEMTKNQVSLTCLVKGFYPSDIAVEWESNGQPENNYKTTPPVLDSDGSFFLYSKLTVDKSRWQQGNVFSCSVMHEALHNHYTQKSLSLSP light: QSALTQPPSASGSPGQTVTISCTGTRYDVGYYEYVSWYQQHPGKAPKLMIYETSKRLSGVPDRFSGSKSGNTASLTVSGLQAEDEADYYCSSYRYEHQVSFGGGTKLTVLGQPKAAPSVTLFPPSSEELQANKATLVCLISDFYPGAVTVAWKADSSPVKAGVETTTPSKQSNNKYAASSYLSLTPEQWKSHRSYSCQVTHEGSTVEKTVAPTECS
0.004 RU | 0.05 | 0.0335 RU | 0.72 | 0.0328 RU | 0.58 | 0.0313 RU | 2.85 | 0.0011 RU | 0.02 | 0.0007 RU | 0.03 | 1180 nM | A375-MY201aPh/B167-Lamlib (antibody, human IgG1, lambda, copies: 2 + 2) heavy: EVQLVESGGGLVKPGGSLRLSCAASGFTFSTFTMNWVRQAPGKGLEWVSSISSKSTYIEYADSFKVRFTISRDNAKNSLYLQMNSLRAEDTAVYYCARYGAKNFLNWVFDYWGQGTLVTVSSASTKGPSVFPLAPSSKSTSGGTAALGCLVKDYFPEPVTVSWNSGALTSGVHTFPAVLQSSGLYSLSSVVTVPSSSLGTQTYICNVNHKPSNTKVDKRVEPKSCDKTHTCPPCPAPELWNGPSVFLFPPKPKDTLMISRTPEVTCVVVDVSDEDPEVKFNWYVDGVEVHNAKTKPREEQYNSTYRVVSVLTVLHQDWLNGKEYKCKVSNKALPKPIEKTISKAKGQPREPQVYTLPPSREEMTKNQVSLTCLVKGFYPSDIAVEWESNGQPENNYKTTPPVLDSDGSFFLYSKLTVDKSRWQQGNVFSCSVMHEALHNHYTQKSLSLSP light: QSALTQPPSASGSPGQTVTISCTGTRYDVGYYEYVSWYQQHPGKAPKLMIYETSKRLSGVPDRFSGSKSGNTASLTVSGLQAEDEADYYCSSYRYEHQVSFGGGTKLTVLGQPKAAPSVTLFPPSSEELQANKATLVCLISDFYPGAVTVAWKADSSPVKAGVETTTPSKQSNNKYAASSYLSLTPEQWKSHRSYSCQVTHEGSTVEKTVAPTECS
 |  |  |  | 0.002 RU | 0.03 | 0.0477 RU | 4.35 | -0.001 RU | -0.01 | -0.0009 RU | -0.04 | 1560 nM | A375-TT11/B167-Lamlib (antibody, human IgG1, lambda, copies: 2 + 2) heavy: EVQLVESGGGLVKPGGSLRLSCAASGFTFSTFTMNWVRQAPGKGLEWVSSISSKSTYIEYADSFKVRFTISRDNAKNSLYLQMNSLRAEDTAVYYCARYGAKNFLNWVFDYWGQGTLVTVSSASTKGPSVFPLAPSSKSTSGGTAALGCLVKDYFPEPVTVSWNSGALTSGVHTFPAVLQSSGLYSLSSVVTVPSSSLGTQTYICNVNHKPSNTKVDKKVEPKSCDKTHTCPPCPAPEYLGGDSVFLFPPKPKDVLMISRTPEVTCVVVDVSHEDPEVKFNWYVDGVEVHNAKTKPREEQYNSTYRVVSVLPVLHQDWLNGKEYKCKVSNKALPKPIEKTISKAKGQPREPQVYTLPPSREEMTKNQVSLTCLVKGFYPSDIAVEWESNGQPENNYKTTPPVLDSDGSFFLYSKLTVDKSRWQQGNVFSCSVMHEALHNHYTQKSLSLSP light: QSALTQPPSASGSPGQTVTISCTGTRYDVGYYEYVSWYQQHPGKAPKLMIYETSKRLSGVPDRFSGSKSGNTASLTVSGLQAEDEADYYCSSYRYEHQVSFGGGTKLTVLGQPKAAPSVTLFPPSSEELQANKATLVCLISDFYPGAVTVAWKADSSPVKAGVETTTPSKQSNNKYAASSYLSLTPEQWKSHRSYSCQVTHEGSTVEKTVAPTECS
0.002 RU | 0.02 | 0.046 RU | 0.99 | 0.0465 RU | 0.82 | 0.0482 RU | 4.4 | 0.0015 RU | 0.02 | 0.0009 RU | 0.04 | 1270 nM | A375-MY518/B167-Lamlib (antibody, human IgG1, lambda, copies: 2 + 2) heavy: EVQLVESGGGLVKPGGSLRLSCAASGFTFSTFTMNWVRQAPGKGLEWVSSISSKSTYIEYADSFKVRFTISRDNAKNSLYLQMNSLRAEDTAVYYCARYGAKNFLNWVFDYWGQGTLVTVSSASTKGPSVFPLAPSSKSTSGGTAALGCLVKDYFPEPVTVSWNSGALTSGVHTFPAVLQSSGLYSLSSVVTVPSSSLGTQTYICNVNHKPSNTKVDKKVEPKSCDKTHTCPPCPAPELWNGPSVFLFPPKPKDTLMISRTPEVTCVVVDVSDEDPEVKFNWYVDGVEVHNAKTKPREELYNSTYRVVSVLTVLHQDWLNGKEYKCKVSNTALPKPIEKTISKAKGQPREPQVYTLPPSREEMTKNQVSLTCLVKGFYPSDIAVEWESNGQPENNYKTTPPVLDSDGSFFLYSKLTVDKSRWQQGNVFSCSVMHEALHNHYTQKSLSLSP light: QSALTQPPSASGSPGQTVTISCTGTRYDVGYYEYVSWYQQHPGKAPKLMIYETSKRLSGVPDRFSGSKSGNTASLTVSGLQAEDEADYYCSSYRYEHQVSFGGGTKLTVLGQPKAAPSVTLFPPSSEELQANKATLVCLISDFYPGAVTVAWKADSSPVKAGVETTTPSKQSNNKYAASSYLSLTPEQWKSHRSYSCQVTHEGSTVEKTVAPTECS
